In the supplement of paper PMC12764529:
± gives the half width of the 95% confidence interval.

Assay: folding stability dG unfold from chymotrypsin proteolysis; higher = more stable
Protocol: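 Folding stability of de novo designed mini-proteins (<80 aa, no Cys; designed by TrROS, TrMRF, ProteinMPNN and the joint model) was measured by cDNA display proteolysis with trypsin and chymotrypsin. Each protease was used at 11 concentrations in a threefold dilution series plus a no-protease condition. K50 was inferred by Bayesian fitting of sequencing counts, and dG unfold was derived against a sequence-predicted unfolded-state K50 (Tsuboyama et al. method). Sequences shown include variable-length N-terminal GS-type padding (SAGGSAGG...) inside a display construct carrying a PA tag. Rows were kept only if the AF2 dimer inter-PAE was >15, to exclude likely homo-oligomers.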

“SAGGGSMVEKTISTTDPKYVKILKKLEEAPEDEVVTIKEPNKDIEVLSFDKVDDNYKLLMKLPPSILSAGGS [r16_404_JUSTAS]” and “SAGGSAGGSAPFENLPEDAKEVEITFDPSLSEEVRKALAEELKPRIEAQGIKYKFKIVPKSNLSAGGSAGGS [r12_456_JUSTAS]” are within error of each other in “folding stability dG unfold” value: -0.454 ± 0.38 kcal/mol for the first, -0.448 ± 0.59 kcal/mol for the second.

Going from “SAGGSAGGSAGGMNTPIVVETEDLPSSRPVEEVKAEAAPKGYTEVKAYPDGTVVITKVRSSAGGSAGGSAGG [r11_961_JUSTAS]” to “SAGGSAGGSAGGPNWRIITHEIPIKDGEIEINLPEGIKPQSIERNPDDGYIKVSIVIPLSAGGSAGGSAGGS [r10_906_TrROS]”, the “folding stability dG unfold” value falls from 0.607 ± 0.047 kcal/mol to -0.259 ± 0.14 kcal/mol.

First: SAGGSAGGMVITFTAPDGTPLGTVEVELPPNNPEAEEEARELAEALRAELEEAGRPVAATVEPASAGGSAGG [r6_884_JUSTAS]
Second: SAGGMGVRVEEKVLATSESSTPDGTPVTFTETETKITLPPGTVVTVKKLLETGGGGRKVLEETTSPLASAGG [r13_898_JUSTAS]
The “folding stability dG unfold” value of the first is higher: 0.903 ± 0.088 kcal/mol for the first, 0.092 ± 0.039 kcal/mol for the second.

Compared with “SAGMTPEDLKNGKPVKVPIPIPIRDPDGKPWAEIPIKGPMPVKDIMEVIETIREIARELKIPPSDGDKNSAG [r5_606_TrROS]”, “SAGGSAGGSAGGPPTTARITLPDGRTYTVPVPVDPTTGTVYVEDIRRAVAPNYTFTIELGSAGGSAGGSAGG [r7_492_TrMRF]” is higher in “folding stability dG unfold” value: -0.743 ± 0.53 kcal/mol for the first, 0.981 ± 0.16 kcal/mol for the second.

“SAGGSASMRTVTLTSTETLELKDPSGNLRVETTPVVVTVPVEVPDPNLPPPAVNSPVLTELLLRLLSAGGSA [r15_728_JUSTAS]” and “SAGGSAGGSDPTYVEVRTLAGPAGPTRVLIRPSSGEWLEAEFPVDRPVVFFVPADVEVEVLPDSAGGSAGGS [r12_517_TrMRF]” are within error of each other in “folding stability dG unfold” value: 0.413 ± 0.064 kcal/mol for the first, 0.498 ± 0.048 kcal/mol for the second.

Going from “SAGGSAGGMTIKELLKEGVPFKIEMYGPNNGEPREFKIPPGESIDDILENMPFPPGMQIRIEPKSAGGSAGG [r6_232_TrROS]” to “SAGGSAGGGASTRRTITVPYEDPEEAFEKVKEEVKAETGKPTEVTLTEIDPNNPGVITVEVTVSSAGGSAGG [r6_211_JUSTAS]”, the “folding stability dG unfold” value rises from 0.121 ± 0.31 kcal/mol to 0.938 ± 0.019 kcal/mol.

First: RTISIDEIREKLGMDPDDLKNMPMEEIADEIRDELPPGRAKGVKISPNEDDGMWTITVKYKNGRPVEITIDS [r1_340_TrROS]
Second: SAGGSAGGSAGGSSTITLDPANPTVVTDPATGVPTTGVSLAELEKLGMKPAGPDAYVVLSAGGSAGGSAGGS [r4_306_JUSTAS]
The “folding stability dG unfold” value of the first is higher: 0.671 ± 0.16 kcal/mol for the first, 0.289 ± 0.18 kcal/mol for the second.

“SAGGSSAEELAEALKKKLEELGLEIKELELKVKKVKVEEKPKPKVELKEEKVEVKEKKFYSEEEKKSAGGSA [r2_384_TrROS_Hall]” and “SAGGSAGGSAGGSMTVTETRYVGTDPATGVATTLSTYRDASGTPGLVTTYPGGAVTVALSAGGSAGGSAGGS [r4_35_JUSTAS]” are within error of each other in “folding stability dG unfold” value: -0.485 ± 0.69 kcal/mol for the first, 0.0995 ± 0.26 kcal/mol for the second.

Compared with “SAGGMLSRESTDPGPGRRTLTREEPLPDGTVPVTVTTESPDPSVTTVETRLVFPGPAVETPTRTAAPSAGGS [r16_684_JUSTAS]”, “SAGGSAGGSVYLDPAVLAELEALRQAGLRVAEVREERVEVEGGPPRRVDVRAVVVDLPPEALAASAGGSAGG [r6_771_JUSTAS]” is lower in “folding stability dG unfold” value: 0.78 ± 0.038 kcal/mol for the first, 0.621 ± 0.056 kcal/mol for the second.

Going from “SKTVVIAADPNNPEAIKKAIEEAPPDTTIVIVVPLENGEYPKVTITRKPPEVPPIPPELLSEEEIKELLPSA [r9_1103_TrMRF]” to “SAGGSAGGMPVVVETRPDPETGNEIVRITVPKPNYTLVLRRDSQGKETLLAEIGPYTPDDPGLLSAGGSAGG [r6_149_JUSTAS]”, the “folding stability dG unfold” value falls from 0.836 ± 0.053 kcal/mol to 0.474 ± 0.18 kcal/mol.

Compared with “SAGGMITLEEPELDPSRPVTRVKVLTEIPAPGGVPVVVETTYTDTRAPGDPSVTVVTSTTTVVPGAAGSAGG [r13_131_JUSTAS]”, “SAGGKARITRIEAEPDPLRVEVEVELPDGRKVRAVAVVPPGEGGVARVRTAVDFGEGVVPAADIEIPPSAGG [r13_728_TrMRF]” is higher in “folding stability dG unfold” value: -0.0242 ± 0.055 kcal/mol for the first, 0.704 ± 0.016 kcal/mol for the second.

First: SAGGSAGGSAGVKRIKDVRNPNGNKIRDVEVEEENDPNGNKYLTIKARHKNGNEQEHTLPSAGGSAGGSAGG [r11_810_TrROS]
Second: SAGPITPEEIQEKVTKAMEEEGMDNVNVDVQRDEDNGRITIQVEVQMPPGNKEKAQRIQDAIQDELGIKSAG [r5_9_TrROS]
The “folding stability dG unfold” value of the first is lower: 0.568 ± 0.25 kcal/mol for the first, 0.89 ± 0.062 kcal/mol for the second.

“SAGGSAEIEPVSSEVDPNSDRTVTTNRIPGSGKTRTVTYDSSNPGVTTVTTYAPGGKPLSTTTLPTSAGGSA [r15_974_JUSTAS]” and “SAGSVSLPPGAVLTEERKLPDGSLVRTTTTVSPVPELPVDRIETTTEFYAPGGEKIGTETSSSLRPPGESAG [r5_787_JUSTAS]” are within error of each other in “folding stability dG unfold” value: -0.474 ± 0.28 kcal/mol for the first, -0.0977 ± 0.13 kcal/mol for the second.

First: SAGGSAGGSPNQDFKVKVKIKEFNPGNGHIRIDVEVEGDNPQVQDFAKGIAEGFGFPVEVEPISAGGSAGGS [r20_157_TrROS]
Second: SAGGSAGGSAGGDPDLPVYSVSPTTIPAPPGQDSPTPGPNSVTVDANGTATVTETSVSLVSAGGSAGGSAGG [r7_556_JUSTAS]
The “folding stability dG unfold” value of the first is higher: 0.34 ± 0.038 kcal/mol for the first, -0.6 ± 0.2 kcal/mol for the second.

Compared with “SAGGSAGGSAGMLSVTELSTEEKGSLVTTTTRATVGSTTVTTTTTTFVPRSTALLNPDRGSAGGSAGGSAGG [r11_213_JUSTAS]”, “SAGVKIERDPNPGWMEITYPIDNKPIQIEIPMDPNNGQMKVKVEYGDGKPKEYTIPGGSIEEIIEDLFSAGG [r19_159_TrROS]” is lower in “folding stability dG unfold” value: 0.55 ± 0.089 kcal/mol for the first, 0.111 ± 0.23 kcal/mol for the second.

First: SAGGEEPKRKTVEVPAGQPISELLDALKQYDEVQIRMGNGEEHEIPPNDPPDLEDLPLPPGNTFEIEVSAGG [r13_399_TrROS]
Second: SAGGSAGGSAGGLKELADKLNPGFEIRVENIEPTPGPVRINVRAPNEGVPRSIPIDPDDISAGGSAGGSAGG [r7_303_TrROS]
The “folding stability dG unfold” value of the first is lower: -0.126 ± 0.12 kcal/mol for the first, 0.993 ± 0.018 kcal/mol for the second.

Going from “SAGGSAGGSAGGKRRIQIPPDDPGMTAEQLADRLQKEFPENGVPVEITNIDDYGYIEIESAGGSAGGSAGGS [r10_579_TrROS]” to “SAGWDLKIEPEPNPDNGMRMINIEYEDPDGDGPYTVSIMYHNGKIKAVEVQDPNTGEPELTPEALEELFSAG [r5_872_TrROS]”, the “folding stability dG unfold” value falls from 0.962 ± 0.021 kcal/mol to 0.14 ± 0.26 kcal/mol.

Going from “SAGGSSLPPEYTVTEVEREFTTPEDVAEARAAAEAAAAAGAEVLEVTVERPEDGSYRVRFTLATPRSAGGSA [r2_350_JUSTAS]” to “SAGGGAMLVGETTTSKWIEKTIRNENGEVETKKVKVTTKPVTYKLPDGTLATETKVTIIYPDGSTKEESAGG [r13_113_JUSTAS]”, the “folding stability dG unfold” value falls from 0.611 ± 0.22 kcal/mol to 0.103 ± 0.21 kcal/mol.

First: SAGGSAGGSAGNISSLPPTPITGSSLKRFVVKRPDGTEEEVTLEITYYPETGKEIISTIKSAGGSAGGSAGG [r11_1024_JUSTAS]
Second: SAGGSAGGSAGGSPVIFVDPVEGRARVLLAAPAPNPDGEPGGLGLAEVEFEVGDVRLLLSAGGSAGGSAGGS [r4_10_TrMRF]
The “folding stability dG unfold” value of the first is lower: 0.107 ± 0.31 kcal/mol for the first, 0.753 ± 0.075 kcal/mol for the second.

“SAGGSAGGSAGGLPPGQKYVIKMYNPNGKRQEHEFEIPPGEPFKDFEFPNGWRYDIYPVKSAGGSAGGSAGG [r7_132_TrROS]” and “SAGGSAGGSGMSSTSTTTVEIEKDPSTGKVLKKTVTSPTTTLAPGGEWTTTVSTSTEEISPDLSAGGSAGGS [r12_629_JUSTAS]” are within error of each other in “folding stability dG unfold” value: 0.0841 ± 0.29 kcal/mol for the first, -0.101 ± 0.24 kcal/mol for the second.

“NIRFPDGREIEIPPEPGEEYEIMLPNGPEIKIKKIKYENGEPTIEIERKDGGKKEHEMPPNQPDQILDAIRS [r1_66_TrROS]” and “SAGAVSTFENSNPSISLEELKEKIEEKLGIELVELKKVEDVPGGLKYEIVVPKIKGEKPFSAEEIAKLLSAG [r5_550_JUSTAS]” are within error of each other in “folding stability dG unfold” value: 0.421 ± 0.051 kcal/mol for the first, -0.0356 ± 0.5 kcal/mol for the second.

Going from “SAGGSAGGSAGGGMTTTYTTETIEAPDGTVVIKKTTTYDYGNGSLTKPTIYNPDGTPIGSAGGSAGGSAGGS [r10_1056_JUSTAS]” to “SAGGSAGGKTKVKGTLIGPNGPPVEVEGEALLPDGREYDVHIDAVLLPDPEGEPTVVVKVEVKPSAGGSAGG [r6_334_TrMRF]”, the “folding stability dG unfold” value falls from 0.452 ± 0.14 kcal/mol to 0.168 ± 0.051 kcal/mol.

“SAGDISPSDPVTVRVEVEKDPNSKSTLVRVDEETPTGRRLERRIPADGPVVVTEREPASGATRVTVEPASAG [r5_55_JUSTAS]” and “SAGSVTRSFPSGSSVSAETDPETNTITISTSPSSGQLVAQLPTAGEKVVPVSDRDLEEAAKEAAEALLSSAG [r5_447_JUSTAS]” are within error of each other in “folding stability dG unfold” value: 0.00901 ± 0.071 kcal/mol for the first, -0.134 ± 0.12 kcal/mol for the second.

With “SAMDLSTLPPSTSVTPSTSSLPGNLSRSTYTLTTRDPETGALTVTTVTTYTDPSSSSTTVTPSTTLLPASAG [r14_307_JUSTAS]” the “folding stability dG unfold” value was 0.34 ± 0.22 kcal/mol.
